Experimental data as given in paper PMC4429025, “Characterization of Mutants of Human Small Heat Shock Protein HspB1 Carrying Replacements in the N-Terminal Domain and Associated with Hereditary Motor Neuron Diseases” (PLoS ONE, 2015).

Legend:
Test in all cases: cross-linking; disulfide crosslinking: reduced proteins alone or mixed at 30 uM per monomer each, 1 h at 42°C, then dialysis against 50 mM Tris/HCl pH 7.4, 50 mM KCl, 1 mM MgCl2, 0.1 mM PMSF at 4, 15 or 37°C; non-reducing SDS PAGE
Conditions in all cases: both partners purified
E41K mutant of HspB1 = target: T1, E41K mutant of HspB1 (human, UniProt P04792 1-205, E41K)
T1 construct: human HspB1 with the disease-associated replacement E41K, in pET23b (NdeI/XhoI); Mutation occurs in patients with distal hereditary motor neuropathy; source: E. coli BL21 (DE3) pLysS, purified (ammonium sulfate fractionation, HiTrap Q, Superdex 200)
T1 sequence (P04792 whole entry E41K): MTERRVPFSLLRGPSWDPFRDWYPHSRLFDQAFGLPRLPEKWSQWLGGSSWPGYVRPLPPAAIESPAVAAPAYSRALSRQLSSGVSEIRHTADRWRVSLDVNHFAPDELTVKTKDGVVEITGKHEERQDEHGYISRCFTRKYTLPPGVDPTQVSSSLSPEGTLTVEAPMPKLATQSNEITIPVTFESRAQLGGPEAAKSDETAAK

P39L mutant of HspB1 = target: T2, P39L mutant of HspB1 (human, UniProt P04792 1-205, P39L)
T2 construct: human HspB1 with the disease-associated replacement P39L, in pET23b (NdeI/XhoI); Mutation occurs in patients with type II Charcot-Marie-Tooth disease or dHMN; source: E. coli BL21 (DE3) pLysS, purified (ammonium sulfate fractionation, HiTrap Q, Superdex 200)
T2 sequence (P04792 whole entry P39L): as the sequence (P04792 whole entry E41K) above, with P39L, K41E counted along it

G34R mutant of HspB1 = target: T3, G34R mutant of HspB1 (human, UniProt P04792 1-205, G34R)
T3 construct: human HspB1 with the disease-associated replacement G34R, in pET23b (NdeI/XhoI); Mutation occurs in patients with distal hereditary motor neuropathy; source: E. coli BL21 (DE3) pLysS, purified (ammonium sulfate fractionation, HiTrap Q, Superdex 200)
T3 sequence (P04792 whole entry G34R): as the sequence (P04792 whole entry E41K) above, with G34R, K41E counted along it

[1] = target: T4, wild type HspB1 (human small heat shock protein HspB1) (human, UniProt P04792 1-205)
T4 construct: human small heat shock protein HspB1, wild type, cDNA in pET23b; also called WT HspB1; WT; source: E. coli BL21 (DE3) pLysS, purified (ammonium sulfate fractionation, HiTrap Q, Superdex 200)
T4 sequence (P04792 whole entry): as the sequence (P04792 whole entry E41K) above, with K41E counted along it

Measured: binding result

B1: double mutant of HspB6 containing the substitutions C46S/E116C (natural protein, human, UniProt O14558 1-160, looked up)
chain: MEIPVPVQPSWLRRASAPLPGLSAPGRLFDQRFGEGLLEAELAALSPTTLAPYYLRAPSVALPVAQVPTDPGHFSVLLDVKHFSPEEIAVKVVGEHVEVHARHEERPDEHGFVARCFHRRYRLPPGVDPAAVTSALSPEGVLSIQAAPASAQAPPPAAAK
notes: HspB6 lacking the natural Cys of the N-terminal domain and with a single Cys at the position homologous to Cys137 of HspB1; also called Cys mutant of HspB6; Cys-mutant of HspB6; source: expressed and purified as described earlier [36]
binds: E41K mutant of HspB1 | P39L mutant of HspB1 | G34R mutant of HspB1 | [1]
